Reference: a protein production outcome set (Wang et al. 2014)

Assay: label from the status in PepcDB records

| Sequence | protein production |
| --- | --- |
| MLHDWGVIAAALAYIGFLFVVASWGDRLSQGQRERAGGLIYPLSLAIYCTSWTFFGSVGFASRSSFDFLAIYVGPVLVVLVATPLLRRVIRLAKSQNITSIADFIAARYGKSQKVAATVAIIAIIGSVPYIALQLKAVSSSLQTILGDDHNIADIPIVGDIALIVAMAMALFTVLFGTRQASATEHQHGLMLAVATESIVKLVAFLAAGIFVTFWMFSPSALIERAMQMPEAVRALDSTSPANFLTMTALSFCAFMMLPRQFHVSVVENSNEAEVGRARWLFPLYLVAINLFVIPIALAGLVKFPFGKVDSDMYVLALPIDADAPMLSVAVFIGGLSAATAMVIVECVALAVMVSNDLVMPLVLKRHGAPRPDEQRNFGRFLLTVRRVAIFAILILAYLYYRALGNTQLAAIGLLSFAAIAQFAPSFFGGLIWRRATARGAIGGLLVGFAVWAYTLFIPSFMENSTTGLLLLQHGPWGIEALRPQALFGSDLPPLLHGVLWSLSLNLIAYILLSLLRQPSSIERLQAEVFVPDALTPMTPAFRRWRTTVTVQDIVGAVSQYLGPERARDSFRSFAAGRRITLDPAAPADFELLKHAEHLIASSIGAASSRLVLSLLLRKRTVSAEAALKLLDDSHAALHFNREILQTALNHVRQGIAVFNPELQLICSNRQFGEILGLPPHIIQIGIPLIEILEFLASNSIAPIDAEAHTQMRMAAYTTEGEPFIERFPDRHLVVEVRANRMPDGGLVITFSDVTPSFEAAEALERANATLERRVRERTEELTRLNSQLALAKSTAEEANISKTRFLAAASHDILQPLNAARLYATSLVERQNGGEDSRLVENIDESLQAIEEIIGALLDISRLDAGAMTPSLSNFVIGDLMRSLEIEFSPTARAKGLELTFVPCSLPVQSDRLMLRRLMQNLISNAIKYTPQGRVLVGCRRQGQSLRIGIYDTGVGVPILKRGEIFKEFHRLEQGARIARGLGLGLSIVERLARVLNHGIALDSNRGGGSCFSVTVPVAEAVNHTAAVTSATPLSRASMSGILVVCIENDPAILDGMKTLLTTWDAKVIAVADPEAAIRAIESSEQRVTGLLVDYHLDRGNGIAAIREIRARFGQSIPAILITADRSPGVRASARQEEIAVLNKPVKAASLRALLSQWHAQQSVVAAE | failed |
| MLHIDDAMIEDAVTPQAAQEVLHAAFLDFGRGSAAMQRRVRTEAGGVKLSTLGAVIPGQGVAGAKVYTTIKGQFQFVILLFSAADGRPLATCDAGTLTRKRTAACTVLAAGALARPRSSVLGLFGAGTQGVEHAAQLSARFALEAILVHDPHASPEVVERIGRRCGVPARMAAPADIAAQADIVVTATRSATPLFAGQALRAGAFVGAIGSSLPHTRELDDEALRRARAVVVEWREQTLSEAGDLVLAAPDTGLDAKVVELADVLAGRATARQADEDIVIYKSVGVGLEDVALAGYAYRRLAAQRGWPAP | failed |
| MLHKRASEANDKNDNTIIGSDLASSKKRRIDFTESSSDKSSSILASGSSRGFHGDSVVQQIDMAFGNSNRQEIDEDLHSRQLAVYGRETMRRLFASNVLISGMHGLGAEIAKNLILAGVKSVTLHDERVVELWDLSSNFVFSEDDVGKNRADASVQKLQDLNNAVVVSSLTKSLNKEDLSGFQVVVFSDISMERAIEFDDYCHSHQPPIAFVKADVRGLFGSVFCDFGPEFAVLDVDGEEPHTGIIASISNENQAFISCVDDERLEFEDGDLVVFSEVEGMTELNDGKPRKIKSTRPYSFTLDEDTTNYGTYVKGGIVTQVKQPKLLNFKPLREALKDPGDFLFSDFSKFDRPPLLHLAFQALDHFKAEAGRFPVAGSEEDAQKLISIATAINTGQGDLKVENVDQKLLRHFSFGAKAVLNPMAAMFGGIVGQEVVKACSGKFHPLFQFFYFDSVESLPSEPVDSSDFAPRNSRYDAQISVFGAKFQKKLEDAKVFTVGSGALGCEFLKNLALMGVSCGSQGKLTVTDDDIIEKSNLSRQFLFRDWNIGQAKSTVAASAAAVINPRFNIEALQNRVGAETENVFDDAFWENLTVVVNALDNVNARLYVDSRCLYFQKPLLESGTLGTKCNTQSVIPHLTENYGASRDPPEKQAPMCTVHSFPHNIDHCLTWARSEFEGLLEKTPAEVNAYLSSPVEYTNSMMSAGDAQARDTLERIVECLEKEKCETFQDCLTWARLRFEDYFVNRVKQLIYTFPEDAATSTGAPFWSAPKRFPRPLQYSSSDPSLLNFITATAILRAETFGIPIPEWTKNPKEAAEAVDRVIVPDFEPRQDAKIVTDEKATTLTTASVDDAAVIDDLIAKIDQCRHNLSPDFRMKPIQFEKDDDTNYHMDVIAGLANMRARNYSIPEVDKLKAKFIAGRIIPAIATSTAMATGLVCLELYKVLDGGHKVEAYRNTFANLALPLFSMAEPLPPKVVKHRDMAWTVWDRWVLKGNPTLREVLQWLEDKGLSAYSISCGSCLLFNSMFTRHKERMDKKVVDLARDVAKVELPPYRNHLDVVVACEDEDDNDVDIPLVSIYFR | failed |
| MLHLKVQFLDDSQKIFVVDQKSSGKALFNLSCSHLNLAEKEYFGLEFCSHSGNNVWLELLKPITKQVKNPKEIVFKFMVK | failed |
| MLHWISLLCAGCLEMAGVALMNQYAKEKSVKWVLLIIVGFAASFSLLSYAMETTPMGTAYAVWTGIGTAGGALIGILFYKEQKDAKRIFFIALILCSAVGLKILS | failed |
| MLIFLISSAIVLLADLLITYQIYREIKVRREVSGNQGGFASVIIPVRGLDVNAEENLKSLLSQDYSAYEVIYVVDDENDPIVPILRKYNVKVVVSNKNCDICSGKINAQLEGLKHARGDIIVFADSDTWFPKYWLKELVSPLSNYVATTVFSWAKPVRLTIGNIIRAGFWTLGFESQAVGGTFLWGGSMAFKREFFDERVIQELKTQWCDDCTLTRIAKERGKLGFVFNAMPLNFYDETQLITWSKRQLITVWRYSRRGVNGFIIVAIFMLAFLFLIPFNVFAITPFIFWVFKNILRSYKIGLSNSIIPSLASILAIFYSLFLIALTLREKNIIWRGKIYKV | failed |
| MLIKLTGGTVYDPANGIDGQVRNLFIRDGRIVHSLNGATPDQEYDLRGKVVMAGAIDMHTHIGGGKVT | failed |
| MLIKQTDYFRIYRVINSLLISQNADPASASMYFSTFGAFILQQHYKVKAVPKGGLAAYNLGGTVLLFADHREDGYVTGAGENFHCWVEADGWAIDFMAPAFSEGTDALAVPAKMFQRPLSAMAASINDLGQSGDFFYRSEPEATARRFADWHKQAMIGDMASVAANWFRKSPKQMAASLSVTDRDGKARTVPLTGEMLTGAW | not failed |
| MLINLGQRLENLRTLVGFLKAARAESLDRVIAIADSLNKTEIAAQSRRWMLSHPAVAQLAAENYAPARPALEALNQLPTGTLGQAYASLLLGQNLSPDDLQPAKPATNADEYIVERLRVTHDIAHVITGFGTDPASELGLQAFNLRQNRTPLAVLLIAGGLLKTIKEGRDPAPILRQVARGIELADKAELLVAQRWEDHWDWPLEQWRQVLNLPV | failed |
| MLITISDIAWGIALSIWVAIVVLYISKLISKKFGAYVTRKAIHMLGGGIVAVLSPFVFNSPLVPIITSYLIMAYLITIRVLRKEMSWFMDKENLGEVFFAFSFGTVLLVMFILDPNYWTSTDLIYVAVLPLIFMSFGDGITGIIRNFVYKRRVKGLWGSMGMLIFCATVGYFVLNIPGLIAGILATVAELLPYIDDNISVPFLSFLFLYLFVRVL | failed |
| MLITVYCVRRDLSEVTFSLQVSPDFELRNFKVLCEAESRVPVEEIQIIHMERLLIEDHCSLGSYGLKDGDIVVLLQKDNVGPRAPGRAPNQPRVD | failed |
| MLKAFRKNQHPVAIPSTLPDGSAWPRISIVTPSYNNAKYIEETIISVLEQGYPDVEHIIVDGASKDGTAAILDRYRGHVARIIQEPDTGQSNAINKGMRLATGEIVTWLNSDDLLAPGALAAVAMAFHMSGADMVAGGCQLYRNGGYLGTHLTSCADGTLPAEEISDLYGGWQTGKFFYQPEVMFTRDLWQRAGGQVREDLHYCMDVEMWLRFASCGARLHVIGAPVAMFRLHEEQKTNNPDASPDEYIPVANAWRTTHGLPPITRTTLPPPPPPLKVAFVNDIGFQYGAGIAHQRLFTAVSSAGHTVRGWATGFQSPRDVFEATAARIISEIEAFEPDVVVCGNLHCTIADSDMLVRLTDRWPTCFCLHDLWLLTGHCPHPGFLDCVRHLAGCDHTCPSPDTYPTIAAGDIRKAWDAKREVMARDTFLALANSNWTRAQHDGCTTPGHEARLLRLGCDESIFHPGDRLEARRQLGLDMDAFVVLMPMVDFSSPFKGSVEGLEALSGAGLENLQVICFGVVEQEMIARFPILTALGYLHDPEAVATAYRAADVVVSFSHAETFGQTLMEAACCGIPSLAYRCTGLPDAVVDGVSGFLVDETPDALITRLHQLHADANLRASLGTWAALYARNSRCLQAEYHSFHTNLEEAGLLAPGRLGKNIFFAHTEAHEAEPSIPVSDPRPGSAFKNWLRRELPTPVWMALRRVYRGTKSRLGMHP | failed |
| MLKAYRYRIYPTKAQEEFFEKAFGCCRFVWNKMLEEKLEALKQGKKVPRITPARYKKEYPFLREVDSLALANVQMKQEKAFKDFFKNPKHFGIPKFKRKKDKQSYTTNNQQTKSGNETIRVDFEKGLLYLPKVKSGIKAVFHREFEGKIKSATVVKTKAGRYYVSILVDVQDPRNKEVNRIFENEITKRENFICGIDTGLISFVTIANDTGISKIEYPKYLIKAEKRLKRLQRQLSRKKEGSKNWEKARERLAKEYEYVKNSREDFLHKISKTIIDENQVVVVESLNVKGLSRTRLSKHILDSSWSKFLRYLKYKADWYGRKVIEADRSFPSSKMCSRCGYINKELKLKDRVWKCPKCKAVHDRDENAAKNLKNYGIAYIRNQ | failed |
| MLKDNLKEWFGFDEFKEGQEEIIDSVLHGRHTLGILPTGSGKSLCYQLPTYILEKPTLIISPLISLMDDQVMQMKLKGETHVACVHSGMDEVEKRDNIKRLSKSRFIYLSPEYILQPHNFKYIAHINFGLIVLDEAHCLSEWGYDFRPHYALVGKIIHHFNSATVLALTATAPPQLETDLSHILSLKLNVVQKSMNRENISLQHYNFNDDEGKIEWLLPFLSNSGPTIIYVSSKKRCLELAQMIYDSGYLTGIYHGDLSYQERQTVQQQFFNNDIPVIVATSAFGMGINKKDIRTVIHFHLSSSPSNYLQEIGRAGRDGKQSQAISLFQPDDSFILETLLFTDIITDDDITMFETGNHLPDEKEKILSTLNIQFTFSQLKDIFHQSYQRKRLGYMRMMGYTNLDQCRRKYLLEFFGEHPQSPKQCCDQDSRLEPIQILNRKKVKRKLSFNEKLYNLFET | failed |
| MLKEIKRRNRMKNKRLIGIIAALAVLVAGSLIYSSMNKSEAQNNKDEKKITKIGVLQFVSHPSLDLIYKGIQDGLAEEGYKDDQVKIDFMNSEGDQSKVATMSKQLVANGNDLVVGIATPAAQGLASATKDLPVIMAAITDPIGANLVKDLKKPGGNVTGVSDHNPAQQQVELIKALTPNVKTIGALYSSSEDNSKTQVEEFKAYAEKAGLTVETFAVPSTNEIASTVTVMTSKVDAIWVPIDNTIASGFPTVVSSNQSSKKPIYPSATAMVEVGGLASVVIDQHDLGVATGKMIVQVLKGAKPADTPVNVFSTGKSVINKKIAQELGITIPESVLKEAGQVIE | not failed |
| MLKERAGAVSAGLRALDLALVAAAFGLALALRAAVDVPAVPPLLPAGRHLAWLAVALALWPAAAGAAGVYGQYRTRSRREEILRLARAVGLLALGVAAASFLGRDRDLSRLLLLGWNGIALVLLAGSRVAVRTLAHEARRRGHNTRAFAVVGSGPMARAMRQRLLARPEWGFTFAGFVLEEGAPRRGIPGPVLGRVDELAAVLERYVVDLVVFAVPRDRLPGMEAAVAACQEQGVVAKIGLEPFPPRHGRLTVEDLDGIPVLSYASAPQDALPLLAKRAIDVVASALALVVLSPLLAAVALAVRLDSPGPVLFRQRRVGLSGRTFTLYKFRSMRAGAEAEQARLADRNEMDGPVFKLRDDPRVTRVGKVLRRTSLDELPQLWNVLRGEMSLVGPRPPLPDEVRRYERWQRRRLSVKPGLTCTWQVSGRSEVGFGRWMQLDLDYIDRWSLWQDVRIVLRTIPAVLLGRGAR | failed |
